Assay results published in the supplement of paper PMC9112550, “Optimization of the antimicrobial peptide Bac7 by deep mutational scanning” (BMC Biology, 2022).

Test system: Escherichia coli TOP10
Assay: shrunken log2 fold change of peptide-encoding DNA abundance (4.5 h post-induction vs induction); higher = less antimicrobial activity (less host growth inhibition)
Details: time post-induction: 4.5 h; library: site-saturation at positions 5, 18, 19, 20
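Note: peptides expressed intracellularly from a pBAD plasmid library in pooled LB shake-flask culture, induced with 0.3% L-arabinose, DNA abundance read by NGS, three biological replicates, DESeq2 with apeglm shrinkage.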

Sequence | shrunken log2 fold change
RRIRIRPPRLPRPRPRPNHDPRP | -0.832
RRIRARPPRLPRPRPRPDLCPRP | 0.393
RRIRNRPPRLPRPRPRPRNWPRP | -0.149
RRIRMRPPRLPRPRPRPSHFPRP | -0.274
RRIRARPPRLPRPRPRPLEMPRP | 0.75
RRIRFRPPRLPRPRPRPLQSPRP | 0.11
RRIRKRPPRLPRPRPRPVCHPRP | 0.199
RRIRPRPPRLPRPRPRPNSWPRP | -0.299
RRIRKRPPRLPRPRPRPEFCPRP | 0.771
RRIRLRPPRLPRPRPRPMHMPRP | -0.226
RRIRRRPPRLPRPRPRPRYAPRP | 0.284
RRIRMRPPRLPRPRPRPGGWPRP | 1.32
RRIRCRPPRLPRPRPRPWAKPRP | -0.234
RRIRKRPPRLPRPRPRPWRGPRP | 0.155
RRIRRRPPRLPRPRPRPLRDPRP | 1.05
RRIRYRPPRLPRPRPRPFAYPRP | -0.00131
RRIRCRPPRLPRPRPRPGRNPRP | -0.0027
RRIRSRPPRLPRPRPRPFNFPRP | -0.112
RRIRLRPPRLPRPRPRPPACPRP | 0.448
RRIRFRPPRLPRPRPRPFWAPRP | 0.166
RRIRARPPRLPRPRPRPSCQPRP | 0.133
RRIRVRPPRLPRPRPRPFSCPRP | -0.323
RRIRHRPPRLPRPRPRPTCAPRP | 0.242
RRIRWRPPRLPRPRPRPLYHPRP | -0.307
RRIRTRPPRLPRPRPRPLCCPRP | 1

Sequence | shrunken log2 fold change
RRIRHRPPRLPRPRPRPGDFPRP | -0.147
RRIRPRPPRLPRPRPRPFNDPRP | 0.0502
RRIRWRPPRLPRPRPRPAGPPRP | 0.235
RRIRDRPPRLPRPRPRPKMCPRP | -0.0407
RRIRCRPPRLPRPRPRPTMRPRP | 0.529
RRIRNRPPRLPRPRPRPHEAPRP | -0.0663
RRIRCRPPRLPRPRPRPLFVPRP | -0.482
RRIRDRPPRLPRPRPRPFMPPRP | -0.124
RRIRCRPPRLPRPRPRPGHEPRP | 0.00505
RRIRFRPPRLPRPRPRPRSHPRP | -0.181
RRIRARPPRLPRPRPRPRHPPRP | 0.383
RRIRCRPPRLPRPRPRPCIAPRP | -0.11
RRIRSRPPRLPRPRPRPDHVPRP | -0.0207
RRIRCRPPRLPRPRPRPLLAPRP | 0.229
RRIRIRPPRLPRPRPRPETAPRP | 0.0478
RRIRRRPPRLPRPRPRPPYMPRP | 0.315
RRIRERPPRLPRPRPRPKINPRP | -0.488
RRIRKRPPRLPRPRPRPDTDPRP | 0.198
RRIRQRPPRLPRPRPRPQCGPRP | -0.133
RRIRERPPRLPRPRPRPQNIPRP | -0.837
RRIRSRPPRLPRPRPRPPVTPRP | -0.0798
RRIRMRPPRLPRPRPRPSKEPRP | 0.203
RRIRHRPPRLPRPRPRPMWRPRP | 0.136
RRIRSRPPRLPRPRPRPNNQPRP | -0.104
RRIRARPPRLPRPRPRPQSGPRP | -0.0719
